Experimental data: patent US20240368668A1, “SUBSTRATES AND BIOMARKERS OF ADAMTS7” (The Broad Institute, Inc., priority 2021, published 2024)
Square brackets hold non-standard residues; d marks the D form. Ends that are not written are not given here.

Each substance was assayed against T1, mouse ADAMTS7 (Mus musculus, UniProt Q68SA9, E373Q) (assay: TMT10 TAILS N-terminomics, SMC2 experiment (process replicates, trypsin/AspN digest)). Conditions: SMC2_TAILS HC; log fold change of N-terminal peptide, Ad-mADAMTS7 EQ over Luc.
T1 construct: Full-length mouse Adamts7 1-1857 (Uniprot Q68SA9, WT or E373Q catalytic mutant); expressed in transfected cells; host or cells: Human Coronary Artery Smooth Muscle Cells (HCA-SMC, Lonza), adenovirus 50 MOI
T1 sequence (Q68SA9 221-1657 E373Q): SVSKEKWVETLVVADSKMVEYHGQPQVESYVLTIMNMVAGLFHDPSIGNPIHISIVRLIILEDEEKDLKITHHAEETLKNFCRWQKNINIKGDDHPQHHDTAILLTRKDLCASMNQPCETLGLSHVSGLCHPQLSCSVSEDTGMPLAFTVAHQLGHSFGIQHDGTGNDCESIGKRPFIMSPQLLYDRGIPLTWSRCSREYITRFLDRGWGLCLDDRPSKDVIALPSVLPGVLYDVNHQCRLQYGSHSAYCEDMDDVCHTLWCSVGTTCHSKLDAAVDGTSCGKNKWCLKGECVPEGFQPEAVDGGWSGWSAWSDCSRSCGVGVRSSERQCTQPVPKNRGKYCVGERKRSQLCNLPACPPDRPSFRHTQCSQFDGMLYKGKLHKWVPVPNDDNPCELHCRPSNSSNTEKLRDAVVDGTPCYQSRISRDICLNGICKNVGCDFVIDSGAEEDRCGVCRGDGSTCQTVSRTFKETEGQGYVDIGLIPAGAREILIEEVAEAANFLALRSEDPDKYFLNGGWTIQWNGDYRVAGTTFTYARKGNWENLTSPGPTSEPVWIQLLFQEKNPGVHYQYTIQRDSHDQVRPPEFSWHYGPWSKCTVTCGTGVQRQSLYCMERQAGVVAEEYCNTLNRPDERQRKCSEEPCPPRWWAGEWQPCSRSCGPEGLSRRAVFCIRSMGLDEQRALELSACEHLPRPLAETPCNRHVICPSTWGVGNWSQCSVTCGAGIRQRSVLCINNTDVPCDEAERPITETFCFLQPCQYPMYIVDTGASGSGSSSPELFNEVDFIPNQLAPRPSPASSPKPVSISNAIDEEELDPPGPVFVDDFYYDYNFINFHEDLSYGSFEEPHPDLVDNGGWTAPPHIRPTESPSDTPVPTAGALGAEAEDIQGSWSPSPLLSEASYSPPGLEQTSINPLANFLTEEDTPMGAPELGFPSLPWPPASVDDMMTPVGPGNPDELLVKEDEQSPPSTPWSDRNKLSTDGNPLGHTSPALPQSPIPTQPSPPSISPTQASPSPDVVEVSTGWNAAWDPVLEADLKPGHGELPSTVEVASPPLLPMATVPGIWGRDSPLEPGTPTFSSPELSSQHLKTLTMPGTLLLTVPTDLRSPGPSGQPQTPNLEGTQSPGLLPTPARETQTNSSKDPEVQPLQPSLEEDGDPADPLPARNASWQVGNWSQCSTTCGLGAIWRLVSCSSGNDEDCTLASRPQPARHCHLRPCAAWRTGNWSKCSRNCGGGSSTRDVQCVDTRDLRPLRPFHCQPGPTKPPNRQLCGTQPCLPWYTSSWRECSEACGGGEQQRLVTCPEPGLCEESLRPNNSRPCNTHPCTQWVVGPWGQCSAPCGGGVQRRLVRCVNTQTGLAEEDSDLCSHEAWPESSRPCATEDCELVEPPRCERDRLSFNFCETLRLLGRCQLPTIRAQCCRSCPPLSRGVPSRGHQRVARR
Assay type: cell-based
Summary of the method: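 Full-length mouse ADAMTS7 (WT or E373Q mutant, C-terminal 3xFLAG) or luciferase was transduced via adenovirus, 50 MOI, into HCA-SMC (SMC1, SMC2) or HUVEC. SMC1: pooled media, technical triplicates 400 ug; SMC2: process triplicates 300 ug; HUVEC: process triplicates 200 ug, bFGF2 10 ng/ml.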

logFC.mEQ.over.Luc	Substance
0.09	LOXL1_219 (VASAGVIYPYQPR; listed as Homo sapiens)
−0.03	LOXL2_37 (FQQPAPEYHQPQAPANVAKIQLR; listed as Homo sapiens)
0.06	LOXL2_38 ([code q]QPAPEYHQPQAPANVAKIQLR; not fully specified; listed as Homo sapiens)
0.29	LTBP1_393 (LTATNFR; listed as Homo sapiens)
0.05	LTBP1_540 (HQQVIPHVYPVAAKTQLGR; listed as Homo sapiens)

Same assay, conditions: SMC2_TAILS HC; log fold change, mEQ over Luc

Substance	logFC.mEQ.over.Luc
AEBP1_37 (FLEGFLSELEPEPR; listed as Homo sapiens)	−0.27
CCDC80_66 (LEEPNLQPLQR; listed as Homo sapiens)	−0.13
FBLN2_260 (LGPPAPVQAKAR; listed as Homo sapiens)	−0.44
FBN1_53 (LKGPNVCGSR; listed as Homo sapiens)	−0.25
FN1_36 (MVQPQSPVAVSQSKPGCYDNGKHYQINQQWER; listed as Homo sapiens)	−0.11
FN1_1143 (LTPGVEYVYTIQVLR; listed as Homo sapiens)	−0.49
FN1_1656 (SSSPVTGYR; listed as Homo sapiens)	−0.65
HSPG2_275 (LLPGSVR; listed as Homo sapiens)	−0.36
IGFBP3_31 (SAGLGPVVR; listed as Homo sapiens)	−0.31
IGFBP3_32 (AGLGPVVR; listed as Homo sapiens)	−0.51

Results, then the substance that gave them:

logFC.mEQ.over.Luc	Substance
−0.46	EFEMP1_124 (AVAGPEMQTGR; listed as Homo sapiens)
−0.99	EFEMP1_125 (VAGPEMQTGR; listed as Homo sapiens)
−0.27	FBLN2_259 (ALGPPAPVQAKAR; listed as Homo sapiens)
−0.24	FBN1_29 (LEAGNVKETR; listed as Homo sapiens)
−1.35	FLNA_1285 (LTQTGGPHVKAR; listed as Homo sapiens)
−0.06	FN1_40 (QSPVAVSQSKPGCYDNGKHYQINQQWER; listed as Homo sapiens)
0.18	GSN_413 (HIANVER; listed as Homo sapiens)
−0.19	HSPG2_2331 (ANLAYPAGSTQPIR; listed as Homo sapiens)
−0.22	HSPG2_2333 (LAYPAGSTQPIR; listed as Homo sapiens)
−0.04	IGFBP7_101 (AAGGPGVSGVCVCKSR; listed as Homo sapiens)
−0.08	LOX_58 (LSLGSQYQPQR; listed as Homo sapiens)
0.00	LOX_123 (HWFQAGYSTSR; listed as Homo sapiens)
−0.11	LOX_124 (WFQAGYSTSR; listed as Homo sapiens)
−0.26	LOX_126 (QAGYSTSR; listed as Homo sapiens)
